The target in this assay is T1, VSV L protein (vesicular stomatitis virus (endogenous …, UniProt P03523 1-2109)).
T1 construct: also called catalytic unit of the VSV polymerase; polymerase
The assay is described as follows: co-sedimentation. The note with it: partners not purified.

Usually Kd stands for the constant that tells how readily two partners part at equilibrium. Read a high Kd as weaker binding.

T1 sequence (P03523 whole entry): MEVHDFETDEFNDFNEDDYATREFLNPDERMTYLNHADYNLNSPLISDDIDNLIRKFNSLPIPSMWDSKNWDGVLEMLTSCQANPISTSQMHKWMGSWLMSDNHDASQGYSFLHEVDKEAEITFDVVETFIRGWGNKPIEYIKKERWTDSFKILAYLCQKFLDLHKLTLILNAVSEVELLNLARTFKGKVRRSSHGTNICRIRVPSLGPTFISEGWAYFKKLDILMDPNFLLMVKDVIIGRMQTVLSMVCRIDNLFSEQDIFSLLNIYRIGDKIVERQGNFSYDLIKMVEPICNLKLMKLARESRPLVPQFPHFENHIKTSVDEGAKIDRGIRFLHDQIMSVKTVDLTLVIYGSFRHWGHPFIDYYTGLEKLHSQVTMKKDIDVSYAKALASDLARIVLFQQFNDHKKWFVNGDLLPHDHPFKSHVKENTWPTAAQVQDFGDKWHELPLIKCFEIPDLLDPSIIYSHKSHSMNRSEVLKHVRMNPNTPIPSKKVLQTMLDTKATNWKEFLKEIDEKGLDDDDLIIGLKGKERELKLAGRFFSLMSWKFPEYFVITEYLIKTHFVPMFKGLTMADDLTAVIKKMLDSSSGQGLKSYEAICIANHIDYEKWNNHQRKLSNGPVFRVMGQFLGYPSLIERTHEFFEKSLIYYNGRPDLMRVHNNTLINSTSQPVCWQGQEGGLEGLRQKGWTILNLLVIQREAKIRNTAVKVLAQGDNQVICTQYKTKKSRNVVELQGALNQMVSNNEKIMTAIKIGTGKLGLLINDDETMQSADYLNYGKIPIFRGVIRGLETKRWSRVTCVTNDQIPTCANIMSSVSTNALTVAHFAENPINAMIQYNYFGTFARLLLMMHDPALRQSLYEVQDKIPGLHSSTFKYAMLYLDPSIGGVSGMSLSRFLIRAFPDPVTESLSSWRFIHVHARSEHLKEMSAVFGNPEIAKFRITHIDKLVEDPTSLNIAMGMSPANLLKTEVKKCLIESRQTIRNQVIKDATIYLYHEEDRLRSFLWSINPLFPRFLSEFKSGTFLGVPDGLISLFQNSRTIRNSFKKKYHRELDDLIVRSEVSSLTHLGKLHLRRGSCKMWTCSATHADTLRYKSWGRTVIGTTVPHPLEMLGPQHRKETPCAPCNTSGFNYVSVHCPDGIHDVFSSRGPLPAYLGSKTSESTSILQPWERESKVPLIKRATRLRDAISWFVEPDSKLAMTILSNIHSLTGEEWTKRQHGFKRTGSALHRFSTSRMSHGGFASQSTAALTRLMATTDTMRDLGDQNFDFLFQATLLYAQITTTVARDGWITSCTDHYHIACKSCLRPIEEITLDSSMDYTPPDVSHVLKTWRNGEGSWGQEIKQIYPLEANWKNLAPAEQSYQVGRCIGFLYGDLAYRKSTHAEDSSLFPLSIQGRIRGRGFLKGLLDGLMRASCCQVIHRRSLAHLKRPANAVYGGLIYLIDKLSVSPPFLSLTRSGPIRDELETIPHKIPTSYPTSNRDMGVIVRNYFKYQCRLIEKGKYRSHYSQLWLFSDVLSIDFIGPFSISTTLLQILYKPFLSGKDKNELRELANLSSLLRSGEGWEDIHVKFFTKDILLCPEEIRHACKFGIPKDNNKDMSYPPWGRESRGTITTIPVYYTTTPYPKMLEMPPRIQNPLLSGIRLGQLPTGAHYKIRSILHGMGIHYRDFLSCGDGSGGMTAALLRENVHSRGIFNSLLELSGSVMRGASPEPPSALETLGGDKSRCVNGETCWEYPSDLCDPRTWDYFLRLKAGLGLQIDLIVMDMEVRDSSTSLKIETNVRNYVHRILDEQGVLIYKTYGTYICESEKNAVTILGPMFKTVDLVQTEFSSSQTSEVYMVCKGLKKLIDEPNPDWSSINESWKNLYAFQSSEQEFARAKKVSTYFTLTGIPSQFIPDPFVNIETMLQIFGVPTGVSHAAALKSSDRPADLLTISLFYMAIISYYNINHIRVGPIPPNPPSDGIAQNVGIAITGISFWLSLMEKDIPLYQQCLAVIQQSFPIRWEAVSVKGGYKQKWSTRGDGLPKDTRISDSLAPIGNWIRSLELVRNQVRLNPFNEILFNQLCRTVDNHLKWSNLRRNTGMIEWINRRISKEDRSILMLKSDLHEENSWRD

B1: full genome template (N-RNA) bound with P and L extracted from detergent-disrupted virions (complex)
chain 1: MSVTVKRIIDNTVIVPKLPANEDPVEYPADYFRKSKEIPLYINTTKSLSDLRGYVYQGLKSGNVSIIHVNSYLYGALKDIRGKLDKDWSSFGINIGKAGDTIGIFDLVSLKALDGVLPDGVSDASRTSADDKWLPLYLLGLYRVGRTQMPEYRKKLMDGLTNQCKMINEQFEPLVPEGRDIFDVWGNDSNYTKIVAAVDMFFHMFKKHECASFRYGTIVSRFKDCAALATFGHLCKITGMSTEDVTTWILNREVADEMVQMMLPGQEIDKADSYMPYLIDFGLSSKSPYSSVKNPAFHFWGQLTALLLRSTRARNARQPDDIEYTSLTTAGLLYAYAVGSSADLAQQFCVGDNKYTPDDSTGGLTTNAPPQGRDVVEWLGWFEDQNRKPTPDMMQYAKRAVMSLQGLREKTIGKYAKSEFDK
chain 2: MDNLTKVREYLKSYSRLDQAVGEIDEIEAQRAEKSNYELFQEDGVEEHTKPSYFQAADDSDTESEPEIEDNQGLYAQDPEAEQVEGFIQGPLDDYADEEVDVVFTSDWKPPELESDEHGKTLRLTSPEGLSGEQKSQWLSTIKAVVQSAKYWNLAECTFEASGEGVIMKERQITPDVYKVTPVMNTHPSQSEAVSDVWSLSKTSMTFQPKKASLQPLTISLDELFSSRGEFISVGGDGRMSHKEAILLGLRYKKLYNQARVKYSL
notes: also called whole genome template; copies: 1250 +
For the molecule B1, binding was put at a Kd of 0.02 nM.

Source of the values: paper PMC4263359, “Vesicular Stomatitis Virus Polymerase's Strong Affinity to Its Template Suggests Exotic Transcription Models” (PLoS Computational Biology, 2014).
